Assay results reported in article PMC9482650, “Quantitative fragmentomics allow affinity mapping of interactomes” (Nature Communications, 2022).

Assays:
Experiment in all cases: holdup assay
Parameters in all cases: key: below the threshold = too weak to quantify, mostly under pKd 3.1 to 4
Conditions in all cases: plain residues with an end cap or a label only (N-terminal biotin on a linker: ado-ado)
APBA1_2, Q02410 = target: T1, APBA1_2, Q02410
T1 sequence (Q02410 742-832, limits assumed, looked up): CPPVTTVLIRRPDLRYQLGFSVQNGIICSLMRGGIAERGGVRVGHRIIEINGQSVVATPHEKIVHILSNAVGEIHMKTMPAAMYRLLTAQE

APBA2_2, Q99767 = target: T2, APBA2_2, Q99767
T2 sequence (Q99767 654-744, limits assumed, looked up): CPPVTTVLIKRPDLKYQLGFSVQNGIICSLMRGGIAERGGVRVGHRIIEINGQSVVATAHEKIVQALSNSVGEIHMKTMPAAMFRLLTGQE

ARHGAP21, Q5T5U3 = target: T3, ARHGAP21, Q5T5U3
T3 sequence (Q5T5U3 45-169, limits assumed, looked up): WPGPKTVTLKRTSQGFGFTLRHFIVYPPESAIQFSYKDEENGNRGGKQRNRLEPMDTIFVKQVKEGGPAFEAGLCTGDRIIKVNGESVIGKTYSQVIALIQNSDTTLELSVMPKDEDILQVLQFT

DLG1_1, Q12959 = target: DLG1_1, Q12959
DLG1_3, Q12959 = target: DLG1_3, Q12959
GRIP1_7, Q9Y3R0 = target: T4, GRIP1_7, Q9Y3R0
T4 sequence (Q9Y3R0 999-1096, limits assumed, looked up): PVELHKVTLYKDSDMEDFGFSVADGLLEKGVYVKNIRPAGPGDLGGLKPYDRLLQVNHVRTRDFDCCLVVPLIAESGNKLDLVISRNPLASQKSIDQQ

GRIP2_3, Q9C0E4 = target: GRIP2_3, Q9C0E4
Sequence of GRIP2_3, Q9C0E4 (Q9C0E4 238-339): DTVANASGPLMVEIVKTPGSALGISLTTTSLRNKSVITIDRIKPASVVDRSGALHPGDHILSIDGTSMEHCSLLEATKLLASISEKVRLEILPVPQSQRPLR

GRIP2_4, Q9C0E4 = target: GRIP2_4, Q9C0E4
Sequence of GRIP2_4, Q9C0E4 (Q9C0E4 446-548): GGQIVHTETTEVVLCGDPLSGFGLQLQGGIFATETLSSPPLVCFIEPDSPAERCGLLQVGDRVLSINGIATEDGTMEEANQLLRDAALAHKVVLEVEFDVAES

GRIP2_5, Q9C0E4 = target: GRIP2_5, Q9C0E4
Sequence of GRIP2_5, Q9C0E4 (Q9C0E4 544-642): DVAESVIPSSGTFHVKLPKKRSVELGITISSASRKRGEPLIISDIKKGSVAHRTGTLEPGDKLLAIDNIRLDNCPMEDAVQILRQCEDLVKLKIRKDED

HTRA4, P83105 = target: T5, HTRA4, P83105
T5 sequence (P83105 378-476, limits assumed, looked up): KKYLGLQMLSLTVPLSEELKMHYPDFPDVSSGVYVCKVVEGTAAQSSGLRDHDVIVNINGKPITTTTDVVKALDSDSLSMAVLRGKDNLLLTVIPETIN

IL16_1, Q14005 = target: IL16_1, Q14005
Sequence of IL16_1, Q14005 (Q14005 210-306): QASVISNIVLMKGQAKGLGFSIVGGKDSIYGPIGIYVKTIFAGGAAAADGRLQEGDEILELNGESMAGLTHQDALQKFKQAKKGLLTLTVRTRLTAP

LAP2, Q96RT1 = target: LAP2, Q96RT1
Sequence of LAP2, Q96RT1 (Q96RT1 other isoform, or with tags, fused parts or gaps): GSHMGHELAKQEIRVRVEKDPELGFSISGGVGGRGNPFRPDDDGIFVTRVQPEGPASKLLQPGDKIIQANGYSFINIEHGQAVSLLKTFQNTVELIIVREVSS

LNX1_1, Q8TBB1 = target: LNX1_1, Q8TBB1
Sequence of LNX1_1, Q8TBB1 (Q8TBB1 261-371): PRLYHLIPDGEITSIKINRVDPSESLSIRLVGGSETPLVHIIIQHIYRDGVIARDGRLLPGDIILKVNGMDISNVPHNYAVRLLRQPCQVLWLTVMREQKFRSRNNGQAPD

MAGI2_3, Q86UL8 = target: MAGI2_3, Q86UL8
Sequence of MAGI2_3, Q86UL8 (Q86UL8 600-682): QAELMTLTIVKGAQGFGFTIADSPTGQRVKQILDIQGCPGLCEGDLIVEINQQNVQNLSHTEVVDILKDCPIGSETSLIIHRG

MAGI2_6, Q86UL8 = target: MAGI2_6, Q86UL8
Sequence of MAGI2_6, Q86UL8 (Q86UL8 1141-1229): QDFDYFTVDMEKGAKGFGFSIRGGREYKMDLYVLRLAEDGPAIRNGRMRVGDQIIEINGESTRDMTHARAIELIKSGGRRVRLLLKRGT

MAGI3_2, Q5TCQ9 = target: MAGI3_2, Q5TCQ9
Sequence of MAGI3_2, Q5TCQ9 (Q5TCQ9 398-503): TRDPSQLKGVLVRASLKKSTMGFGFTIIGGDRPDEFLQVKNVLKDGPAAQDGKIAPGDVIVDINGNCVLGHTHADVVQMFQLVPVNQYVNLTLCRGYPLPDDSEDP

MPDZ_10, O75970 = target: T6, MPDZ_10, O75970
T6 sequence (O75970 1624-1722, limits assumed, looked up): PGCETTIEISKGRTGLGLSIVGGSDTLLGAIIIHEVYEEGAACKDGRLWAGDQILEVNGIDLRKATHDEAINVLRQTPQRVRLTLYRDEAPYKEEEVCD

MPDZ_5, O75970 = target: T7, MPDZ_5, O75970
T7 sequence (O75970 695-796, limits assumed, looked up): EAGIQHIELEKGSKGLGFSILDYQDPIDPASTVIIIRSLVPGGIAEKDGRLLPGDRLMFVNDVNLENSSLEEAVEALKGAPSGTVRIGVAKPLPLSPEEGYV

MPP2, Q14168 = target: T8, MPP2, Q14168
T8 sequence (Q14168 180-250, limits assumed, looked up): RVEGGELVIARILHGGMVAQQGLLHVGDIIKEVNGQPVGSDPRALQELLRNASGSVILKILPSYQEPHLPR

MPP6, Q9NZW5 = target: T9, MPP6, Q9NZW5
T9 sequence (Q9NZW5 125-219, limits assumed, looked up): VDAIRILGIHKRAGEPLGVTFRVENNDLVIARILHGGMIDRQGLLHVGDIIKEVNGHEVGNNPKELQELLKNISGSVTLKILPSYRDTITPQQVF

MPP7, Q5T2T1 = target: T10, MPP7, Q5T2T1
T10 sequence (Q5T2T1 134-230, limits assumed, looked up): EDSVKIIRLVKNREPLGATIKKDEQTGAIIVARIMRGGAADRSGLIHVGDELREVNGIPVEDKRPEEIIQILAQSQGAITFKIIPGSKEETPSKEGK

NHERF2_2, Q15599 = target: NHERF2_2, Q15599
Sequence of NHERF2_2, Q15599 (Q15599 142-238): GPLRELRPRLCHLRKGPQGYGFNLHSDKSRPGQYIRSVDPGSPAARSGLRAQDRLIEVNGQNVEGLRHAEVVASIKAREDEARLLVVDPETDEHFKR

NHERF4_2, Q86UT5 = target: NHERF4_2, Q86UT5
Sequence of NHERF4_2, Q86UT5 (Q86UT5 220-308): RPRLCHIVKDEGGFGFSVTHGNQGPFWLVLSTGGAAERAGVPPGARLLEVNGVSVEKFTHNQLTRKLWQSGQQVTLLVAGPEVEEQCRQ

PCLO, Q9Y6V0 = target: T11, PCLO, Q9Y6V0
T11 sequence (Q9Y6V0 4491-4600, limits assumed, looked up): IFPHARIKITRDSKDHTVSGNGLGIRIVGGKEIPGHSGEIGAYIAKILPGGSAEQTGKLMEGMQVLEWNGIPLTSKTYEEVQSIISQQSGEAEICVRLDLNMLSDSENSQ

SCRIB_2, Q14160 = target: SCRIB_2, Q14160
Sequence of SCRIB_2, Q14160 (Q14160 857-960): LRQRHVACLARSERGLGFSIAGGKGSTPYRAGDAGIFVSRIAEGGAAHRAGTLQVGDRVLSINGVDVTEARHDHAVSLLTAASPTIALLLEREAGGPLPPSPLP

SNTG2, Q9NY99 = target: T12, SNTG2, Q9NY99
T12 sequence (Q9NY99 68-166, limits assumed, looked up): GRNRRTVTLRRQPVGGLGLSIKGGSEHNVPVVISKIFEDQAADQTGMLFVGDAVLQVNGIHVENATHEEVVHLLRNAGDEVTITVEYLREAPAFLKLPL

Binder: LTAQEQPVYI [APBA1, Q02410]
- pKd (APBA1_2, Q02410): 4.36
- pKd (APBA2_2, Q99767): below the threshold
- pKd (ARHGAP21, Q5T5U3): 3.57
- pKd (DLG1_1, Q12959): below the threshold
- pKd (DLG1_3, Q12959): below the threshold
- pKd (GRIP1_7, Q9Y3R0): below the threshold
- pKd (GRIP2_3, Q9C0E4): below the threshold
- pKd (GRIP2_4, Q9C0E4): below the threshold
- pKd (GRIP2_5, Q9C0E4): below the threshold
- pKd (HTRA4, P83105): 4.89
- pKd (IL16_1, Q14005): below the threshold
- pKd (LAP2, Q96RT1): below the threshold
- pKd (LNX1_1, Q8TBB1): below the threshold
- pKd (MAGI2_3, Q86UL8): below the threshold
- pKd (MAGI2_6, Q86UL8): below the threshold
- pKd (MAGI3_2, Q5TCQ9): below the threshold
- pKd (MPDZ_10, O75970): below the threshold
- pKd (MPDZ_5, O75970): 3.52
- pKd (MPP2, Q14168): below the threshold
- pKd (MPP6, Q9NZW5): below the threshold
- pKd (MPP7, Q5T2T1): below the threshold
- pKd (NHERF2_2, Q15599): below the threshold
- pKd (NHERF4_2, Q86UT5): below the threshold
- pKd (PCLO, Q9Y6V0): below the threshold
- pKd (SCRIB_2, Q14160): below the threshold
- pKd (SNTG2, Q9NY99): below the threshold

Binder: RQSILFSTEV [BCR, P11274]
- pKd (APBA1_2, Q02410): 4.07
- pKd (APBA2_2, Q99767): below the threshold
- pKd (ARHGAP21, Q5T5U3): below the threshold
- pKd (DLG1_1, Q12959): 4.64
- pKd (DLG1_3, Q12959): 4.06
- pKd (GRIP1_7, Q9Y3R0): below the threshold
- pKd (GRIP2_3, Q9C0E4): 3.69
- pKd (GRIP2_4, Q9C0E4): below the threshold
- pKd (GRIP2_5, Q9C0E4): below the threshold
- pKd (HTRA4, P83105): 4.82
- pKd (IL16_1, Q14005): 3.85
- pKd (LAP2, Q96RT1): 4.39
- pKd (LNX1_1, Q8TBB1): 4.85
- pKd (MAGI2_3, Q86UL8): below the threshold
- pKd (MAGI2_6, Q86UL8): 4.67
- pKd (MAGI3_2, Q5TCQ9): 4.13
- pKd (MPDZ_10, O75970): 3.62
- pKd (MPDZ_5, O75970): below the threshold
- pKd (MPP2, Q14168): below the threshold
- pKd (MPP6, Q9NZW5): below the threshold
- pKd (MPP7, Q5T2T1): below the threshold
- pKd (NHERF2_2, Q15599): below the threshold
- pKd (NHERF4_2, Q86UT5): below the threshold
- pKd (PCLO, Q9Y6V0): below the threshold
- pKd (SCRIB_2, Q14160): 4.54
- pKd (SNTG2, Q9NY99): 4.1

Binder: PLDSQQHTEV [FAT1, Q14517]
- pKd (APBA1_2, Q02410): 3.7
- pKd (APBA2_2, Q99767): below the threshold
- pKd (ARHGAP21, Q5T5U3): 3.85
- pKd (DLG1_1, Q12959): 4.37
- pKd (DLG1_3, Q12959): below the threshold
- pKd (GRIP1_7, Q9Y3R0): below the threshold
- pKd (GRIP2_3, Q9C0E4): below the threshold
- pKd (GRIP2_4, Q9C0E4): below the threshold
- pKd (GRIP2_5, Q9C0E4): below the threshold
- pKd (HTRA4, P83105): 4.26
- pKd (IL16_1, Q14005): below the threshold
- pKd (LAP2, Q96RT1): 3.61
- pKd (LNX1_1, Q8TBB1): below the threshold
- pKd (MAGI2_3, Q86UL8): below the threshold
- pKd (MAGI2_6, Q86UL8): 4.26
- pKd (MAGI3_2, Q5TCQ9): 3.71
- pKd (MPDZ_10, O75970): below the threshold
- pKd (MPDZ_5, O75970): below the threshold
- pKd (MPP2, Q14168): below the threshold
- pKd (MPP6, Q9NZW5): below the threshold
- pKd (MPP7, Q5T2T1): below the threshold
- pKd (NHERF2_2, Q15599): below the threshold
- pKd (NHERF4_2, Q86UT5): below the threshold
- pKd (PCLO, Q9Y6V0): below the threshold
- pKd (SCRIB_2, Q14160): 4.21
- pKd (SNTG2, Q9NY99): 3.67

Binder: SRPTKGPTLL [PLEKHH2, Q8IVE3]
- pKd (APBA1_2, Q02410): 4.25
- pKd (APBA2_2, Q99767): below the threshold
- pKd (ARHGAP21, Q5T5U3): 4.02
- pKd (DLG1_1, Q12959): 3.72
- pKd (DLG1_3, Q12959): below the threshold
- pKd (GRIP1_7, Q9Y3R0): below the threshold
- pKd (GRIP2_3, Q9C0E4): below the threshold
- pKd (GRIP2_4, Q9C0E4): below the threshold
- pKd (GRIP2_5, Q9C0E4): below the threshold
- pKd (HTRA4, P83105): below the threshold
- pKd (IL16_1, Q14005): below the threshold
- pKd (LAP2, Q96RT1): below the threshold
- pKd (LNX1_1, Q8TBB1): below the threshold
- pKd (MAGI2_3, Q86UL8): below the threshold
- pKd (MAGI2_6, Q86UL8): below the threshold
- pKd (MAGI3_2, Q5TCQ9): 4.4
- pKd (MPDZ_10, O75970): below the threshold
- pKd (MPDZ_5, O75970): below the threshold
- pKd (MPP2, Q14168): below the threshold
- pKd (MPP6, Q9NZW5): below the threshold
- pKd (MPP7, Q5T2T1): below the threshold
- pKd (NHERF2_2, Q15599): below the threshold
- pKd (NHERF4_2, Q86UT5): below the threshold
- pKd (PCLO, Q9Y6V0): below the threshold
- pKd (SCRIB_2, Q14160): below the threshold
- pKd (SNTG2, Q9NY99): below the threshold
